Test [1] concerns the target T1, human CD28 (human, UniProt P10747 19-152). The test can be described thus: Octet; avid. Background: In BLI a coated tip is dipped into the sample, and binding shifts an interference pattern.
Test [2] has as its target T2, cynomolgus PDL1 antigen (cynomolgus, UniProt G7PSE7 19-238). The test can be described thus: SPR (Biacore); EXP2. Background: Surface plasmon resonance follows binding to a sensor surface in real time, without labels.
In test [3] the target is T3, human PDL1 antigen (human, UniProt Q9NZQ7 19-238).
Test [4] deals with T2, cynomolgus PDL1 antigen. Nature of the test: SPR (Biacore); EXP1.
The target of test [5] is T3, human PDL1 antigen. Nature of the test: SPR (Biacore); EXP1.
In test [6] the target is T1, human CD28. Nature of the test: -; scFv VHVL in 1+1 Fab-scFv-Fc bsAb.
Test [7] concerns the target T1, human CD28. Nature of the test: BLI (Octet); average of HIS1K and SA capture.
The target in test [8] is T1, human CD28.

Like-named read-outs stand apart in the source and are kept apart here.

The term Kd denotes the constant that tells how readily two partners part at equilibrium. Higher therefore signals lower affinity.

B1: XENP28428 (antibody, V domains shown)
VH: EVQLLESGGGLVQPGGSLRLSCAASGFTFSSYAMSWVRQAPGKGLEWVSTISGSGDSTYYADSVKGRFTISRDNSKNTLYLQMNSLRAEDTAVYYCAKSGPGLRQVGFDYWGQGTLVTVSS
VL: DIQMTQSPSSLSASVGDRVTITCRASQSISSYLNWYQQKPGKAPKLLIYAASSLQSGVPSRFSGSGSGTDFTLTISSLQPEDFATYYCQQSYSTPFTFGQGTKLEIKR
The molecule B1 yielded a Kd with human CD28 [1] of 14.5 nM.

B2: αPDL1×αCD28 bsAb with PDL1 binding domain 2G4_H1.12_L1.66 and CD28 binding domain 1A7_H1.14_L1.71 (bispecific antibody)
heavy: EVQLLESGGGLVQPGGSLRLSCAASGFTFSVYDMSWVRQAPGKRLEWVSTISSGGSFTHYPDSVKGRFTISRDNSKNTLYLQMNSLRAEDTAVYYCVRRSLDWYFDVWGAGTTVTVSSASTKGPSVFPLAPSSKSTSGGTAALGCLVKDYFPEPVTVSWNSGALTSGVHTFPAVLQSSGLYSLSSVVTVPSSSLGTQTYICNVNHKPSDTKVDKKVEPKSCDKTHTCPPCPAPPVAGPSVFLFPPKPKDTLMISRTPEVTCVVVDVKHEDPEVKFNWYVDGVEVHNAKTKPREEEYNSTYRVVSVLTVLHQDWLNGKEYKCKVSNKALPAPIEKTISKAKGQPREPQVYTLPPSREEMTKNQVSLTCDVSGFYPSDIAVEWESDGQPENNYKTTPPVLDSDGSFFLYSKLTVDKSRWEQGDVFSCSVMHEALHNHYTQKSLSLSPGK
scFv-Fc: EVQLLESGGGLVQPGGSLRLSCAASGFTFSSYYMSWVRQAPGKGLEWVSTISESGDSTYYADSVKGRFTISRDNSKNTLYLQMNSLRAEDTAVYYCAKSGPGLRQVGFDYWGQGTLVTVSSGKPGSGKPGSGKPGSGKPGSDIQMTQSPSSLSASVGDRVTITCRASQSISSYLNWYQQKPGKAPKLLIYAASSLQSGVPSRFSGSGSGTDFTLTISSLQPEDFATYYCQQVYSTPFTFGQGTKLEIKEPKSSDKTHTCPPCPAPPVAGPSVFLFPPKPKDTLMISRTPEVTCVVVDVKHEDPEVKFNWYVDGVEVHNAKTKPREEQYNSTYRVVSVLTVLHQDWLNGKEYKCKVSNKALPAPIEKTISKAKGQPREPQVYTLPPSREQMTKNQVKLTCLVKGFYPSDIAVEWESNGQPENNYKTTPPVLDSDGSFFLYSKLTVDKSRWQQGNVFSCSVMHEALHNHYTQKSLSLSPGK
light: EIVLTQSPGTLSLSPGERATLSCRVSSSIQSTNLHWYQQKPGQSPRPLIYGTSNLATGVPVRFSGSGSGTDYTLTISRLEPEDFAVYYCQQWSSYPLYTFGGGTKVEIKRTVAAPSVFIFPPSDEQLKSGTASVVCLLNNFYPREAKVQWKVDNALQSGNSQESVTEQDSKDSTYSLSSTLTLSKADYEKHKVYACEVTHQGLSSPVTKSFNRGEC
B2 showed a Kd in the test with cynomolgus PDL1 antigen [2] of 1.7 nM.

B3: XENP37559 (bispecific antibody)
heavy: EVQLLESGGGLVQPGGSLRLSCAASGFTFSSYDMSWVRQAPGKRLEWVSTISSGGSFTHYPDSVKGRFTISRDNSKNTLYLQMNSLRAEDTAVYYCVRRSGDWYFDVWGAGTTVTVSSASTKGPSVFPLAPSSKSTSGGTAALGCLVKDYFPEPVTVSWNSGALTSGVHTFPAVLQSSGLYSLSSVVTVPSSSLGTQTYICNVNHKPSDTKVDKKVEPKSCDKTHTCPPCPAPPVAGPSVFLFPPKPKDTLMISRTPEVTCVVVDVKHEDPEVKFNWYVDGVEVHNAKTKPREEEYNSTYRVVSVLTVLHQDWLNGKEYKCKVSNKALPAPIEKTISKAKGQPREPQVYTLPPSREEMTKNQVSLTCDVSGFYPSDIAVEWESDGQPENNYKTTPPVLDSDGSFFLYSKLTVDKSRWEQGDVFSCSVMHEALHNHYTQKSLSLSPGK
scFv-Fc: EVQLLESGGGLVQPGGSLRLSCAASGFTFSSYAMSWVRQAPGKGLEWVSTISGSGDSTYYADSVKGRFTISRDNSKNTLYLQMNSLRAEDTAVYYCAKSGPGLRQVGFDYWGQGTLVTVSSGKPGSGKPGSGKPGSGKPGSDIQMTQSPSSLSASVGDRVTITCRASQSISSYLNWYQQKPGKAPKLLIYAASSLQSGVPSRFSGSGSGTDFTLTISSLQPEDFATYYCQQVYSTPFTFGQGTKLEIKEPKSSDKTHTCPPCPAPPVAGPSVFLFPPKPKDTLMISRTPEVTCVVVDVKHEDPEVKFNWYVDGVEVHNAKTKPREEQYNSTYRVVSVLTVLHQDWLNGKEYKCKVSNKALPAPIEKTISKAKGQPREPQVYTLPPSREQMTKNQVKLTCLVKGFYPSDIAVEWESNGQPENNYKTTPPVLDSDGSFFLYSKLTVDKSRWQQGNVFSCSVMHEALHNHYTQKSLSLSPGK
light: EIVLTQSPGTLSLSPGERATLSCRVSSSISSSNLHWYQQKPGQSPRPLIYGTSNLASGVPVRFSGSGSGTDYTLTISRLEPEDFAVYYCQQWSSYPLYTFGGGTKVEIKRTVAAPSVFIFPPSDEQLKSGTASVVCLLNNFYPREAKVQWKVDNALQSGNSQESVTEQDSKDSTYSLSSTLTLSKADYEKHKVYACEVTHQGLSSPVTKSFNRGEC
Consider B3, for which the Kd came out at 2.6 nM with human PDL1 antigen [3], 2.2 nM with cynomolgus PDL1 antigen [4] and 2.6 nM in the test with human PDL1 antigen [5].

B4: XENP36233 (bispecific antibody)
heavy: EVQLLESGGGLVQPGGSLRLSCAASGFTFSSYDMSWVRQAPGKRLEWVSTISSGGSFTHYPDSVKGRFTISRDNSKNTLYLQMNSLRAEDTAVYYCVRRSGDWYFDVWGAGTTVTVSSASTKGPSVFPLAPSSKSTSGGTAALGCLVKDYFPEPVTVSWNSGALTSGVHTFPAVLQSSGLYSLSSVVTVPSSSLGTQTYICNVNHKPSDTKVDKKVEPKSCDKTHTCPPCPAPPVAGPSVFLFPPKPKDTLMISRTPEVTCVVVDVKHEDPEVKFNWYVDGVEVHNAKTKPREEEYNSTYRVVSVLTVLHQDWLNGKEYKCKVSNKALPAPIEKTISKAKGQPREPQVYTLPPSREEMTKNQVSLTCDVSGFYPSDIAVEWESDGQPENNYKTTPPVLDSDGSFFLYSKLTVDKSRWEQGDVFSCSVMHEALHNHYTQKSLSLSPGK
scFv-Fc: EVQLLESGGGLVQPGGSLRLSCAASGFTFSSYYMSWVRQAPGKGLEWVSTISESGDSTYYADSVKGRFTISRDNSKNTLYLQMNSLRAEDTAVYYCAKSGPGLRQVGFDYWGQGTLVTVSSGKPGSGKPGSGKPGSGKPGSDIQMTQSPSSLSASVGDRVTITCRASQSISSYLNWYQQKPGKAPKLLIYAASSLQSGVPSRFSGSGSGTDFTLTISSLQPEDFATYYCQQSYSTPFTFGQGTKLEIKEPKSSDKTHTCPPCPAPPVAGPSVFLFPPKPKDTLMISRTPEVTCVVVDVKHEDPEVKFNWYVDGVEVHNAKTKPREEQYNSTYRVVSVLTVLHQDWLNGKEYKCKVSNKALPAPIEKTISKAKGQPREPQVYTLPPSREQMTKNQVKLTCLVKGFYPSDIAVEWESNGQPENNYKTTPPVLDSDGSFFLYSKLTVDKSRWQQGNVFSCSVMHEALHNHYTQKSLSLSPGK
light: EIVLTQSPGTLSLSPGERATLSCRVSSSISSSNLHWYQQKPGQSPRPLIYGTSNLASGVPVRFSGSGSGTDYTLTISRLEPEDFAVYYCQQWSSYPLYTFGGGTKVEIKRTVAAPSVFIFPPSDEQLKSGTASVVCLLNNFYPREAKVQWKVDNALQSGNSQESVTEQDSKDSTYSLSSTLTLSKADYEKHKVYACEVTHQGLSSPVTKSFNRGEC
As to B4, the Kd with human CD28 [6] and in the test with human CD28 [7] was 229 nM throughout.

B5: αPDL1×αCD28 bsAb with PDL1 binding domain 2G4_H1.12_L1.68 and CD28 binding domain 1A7_H1.14_L1.71 (bispecific antibody)
heavy: EVQLLESGGGLVQPGGSLRLSCAASGFTFSVYDMSWVRQAPGKRLEWVSTISSGGSFTHYPDSVKGRFTISRDNSKNTLYLQMNSLRAEDTAVYYCVRRSLDWYFDVWGAGTTVTVSSASTKGPSVFPLAPSSKSTSGGTAALGCLVKDYFPEPVTVSWNSGALTSGVHTFPAVLQSSGLYSLSSVVTVPSSSLGTQTYICNVNHKPSDTKVDKKVEPKSCDKTHTCPPCPAPPVAGPSVFLFPPKPKDTLMISRTPEVTCVVVDVKHEDPEVKFNWYVDGVEVHNAKTKPREEEYNSTYRVVSVLTVLHQDWLNGKEYKCKVSNKALPAPIEKTISKAKGQPREPQVYTLPPSREEMTKNQVSLTCDVSGFYPSDIAVEWESDGQPENNYKTTPPVLDSDGSFFLYSKLTVDKSRWEQGDVFSCSVMHEALHNHYTQKSLSLSPGK
scFv-Fc: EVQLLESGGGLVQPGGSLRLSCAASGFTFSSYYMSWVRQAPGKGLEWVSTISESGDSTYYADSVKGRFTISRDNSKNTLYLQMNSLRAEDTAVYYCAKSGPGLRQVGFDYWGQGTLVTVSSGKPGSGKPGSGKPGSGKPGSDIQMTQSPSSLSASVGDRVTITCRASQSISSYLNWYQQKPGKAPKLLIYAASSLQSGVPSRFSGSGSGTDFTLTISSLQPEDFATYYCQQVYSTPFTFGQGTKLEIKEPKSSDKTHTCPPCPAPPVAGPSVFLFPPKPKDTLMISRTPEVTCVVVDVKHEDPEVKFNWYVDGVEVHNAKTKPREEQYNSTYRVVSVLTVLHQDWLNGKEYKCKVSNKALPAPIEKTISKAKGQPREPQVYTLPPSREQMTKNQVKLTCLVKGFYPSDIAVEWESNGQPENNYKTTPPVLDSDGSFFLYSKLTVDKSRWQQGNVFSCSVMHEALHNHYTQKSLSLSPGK
light: EIVLTQSPGTLSLSPGERATLSCRVSSSIQSTNLHWYQQKPGQSPRPLIYGTSNLASGVPVRFSGSGSGTDYTLTISRLEPEDFAVYYCQQWSSYPLYTFGGGTKVEIKRTVAAPSVFIFPPSDEQLKSGTASVVCLLNNFYPREAKVQWKVDNALQSGNSQESVTEQDSKDSTYSLSSTLTLSKADYEKHKVYACEVTHQGLSSPVTKSFNRGEC
For the molecule B5, the Kd in the test with cynomolgus PDL1 antigen [2] worked out at 1.5 nM.

B6: αPDL1×αCD28 bsAb with PDL1 binding domain 2G4_H1.12_L1.14 and CD28 binding domain 1A7_H1.14_L1.71 (bispecific antibody)
heavy: EVQLLESGGGLVQPGGSLRLSCAASGFTFSVYDMSWVRQAPGKRLEWVSTISSGGSFTHYPDSVKGRFTISRDNSKNTLYLQMNSLRAEDTAVYYCVRRSLDWYFDVWGAGTTVTVSSASTKGPSVFPLAPSSKSTSGGTAALGCLVKDYFPEPVTVSWNSGALTSGVHTFPAVLQSSGLYSLSSVVTVPSSSLGTQTYICNVNHKPSDTKVDKKVEPKSCDKTHTCPPCPAPPVAGPSVFLFPPKPKDTLMISRTPEVTCVVVDVKHEDPEVKFNWYVDGVEVHNAKTKPREEEYNSTYRVVSVLTVLHQDWLNGKEYKCKVSNKALPAPIEKTISKAKGQPREPQVYTLPPSREEMTKNQVSLTCDVSGFYPSDIAVEWESDGQPENNYKTTPPVLDSDGSFFLYSKLTVDKSRWEQGDVFSCSVMHEALHNHYTQKSLSLSPGK
scFv-Fc: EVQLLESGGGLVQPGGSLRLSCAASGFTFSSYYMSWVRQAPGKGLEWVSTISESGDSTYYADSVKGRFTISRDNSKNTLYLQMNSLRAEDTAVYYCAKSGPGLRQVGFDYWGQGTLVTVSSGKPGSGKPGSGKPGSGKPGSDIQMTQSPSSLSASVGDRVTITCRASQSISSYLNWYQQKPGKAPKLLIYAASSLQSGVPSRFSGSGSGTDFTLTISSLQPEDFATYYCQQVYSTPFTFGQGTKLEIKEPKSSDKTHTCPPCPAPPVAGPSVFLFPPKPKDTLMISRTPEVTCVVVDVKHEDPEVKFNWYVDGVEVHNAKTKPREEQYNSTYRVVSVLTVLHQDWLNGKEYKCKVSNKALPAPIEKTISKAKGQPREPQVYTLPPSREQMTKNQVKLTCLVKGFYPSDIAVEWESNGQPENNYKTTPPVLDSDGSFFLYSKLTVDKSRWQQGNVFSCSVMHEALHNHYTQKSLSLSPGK
light: EIVLTQSPGTLSLSPGERATLSCRVSSSIQSSNLHWYQQKPGQSPRPLIYGTSNLASGVPVRFSGSGSGTDYTLTISRLEPEDFAVYYCQQWSSYPLYTFGGGTKVEIKRTVAAPSVFIFPPSDEQLKSGTASVVCLLNNFYPREAKVQWKVDNALQSGNSQESVTEQDSKDSTYSLSSTLTLSKADYEKHKVYACEVTHQGLSSPVTKSFNRGEC
The molecule B6 yielded a dissociation constant Kd with cynomolgus PDL1 antigen [2] of 0.8 nM.

B7: XENP37560 (bispecific antibody)
heavy: EVQLLESGGGLVQPGGSLRLSCAASGFTFSSYDMSWVRQAPGKRLEWVSTISSGGSFTHYPDSVKGRFTISRDNSKNTLYLQMNSLRAEDTAVYYCVRRSGDWYFDVWGAGTTVTVSSASTKGPSVFPLAPSSKSTSGGTAALGCLVKDYFPEPVTVSWNSGALTSGVHTFPAVLQSSGLYSLSSVVTVPSSSLGTQTYICNVNHKPSDTKVDKKVEPKSCDKTHTCPPCPAPPVAGPSVFLFPPKPKDTLMISRTPEVTCVVVDVKHEDPEVKFNWYVDGVEVHNAKTKPREEEYNSTYRVVSVLTVLHQDWLNGKEYKCKVSNKALPAPIEKTISKAKGQPREPQVYTLPPSREEMTKNQVSLTCDVSGFYPSDIAVEWESDGQPENNYKTTPPVLDSDGSFFLYSKLTVDKSRWEQGDVFSCSVMHEALHNHYTQKSLSLSPGK
scFv-Fc: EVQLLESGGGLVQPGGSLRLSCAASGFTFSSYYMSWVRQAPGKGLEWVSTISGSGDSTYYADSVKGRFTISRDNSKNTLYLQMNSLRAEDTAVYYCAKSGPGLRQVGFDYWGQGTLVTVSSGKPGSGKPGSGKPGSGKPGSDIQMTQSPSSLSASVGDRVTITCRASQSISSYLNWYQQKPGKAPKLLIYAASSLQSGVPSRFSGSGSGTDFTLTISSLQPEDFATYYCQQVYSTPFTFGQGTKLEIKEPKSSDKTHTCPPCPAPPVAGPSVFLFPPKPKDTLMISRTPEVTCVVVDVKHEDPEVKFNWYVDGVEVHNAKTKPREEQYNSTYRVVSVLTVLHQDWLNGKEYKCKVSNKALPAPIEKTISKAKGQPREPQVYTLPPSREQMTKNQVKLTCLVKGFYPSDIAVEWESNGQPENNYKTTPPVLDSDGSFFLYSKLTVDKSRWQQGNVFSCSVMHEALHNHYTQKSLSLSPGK
light: EIVLTQSPGTLSLSPGERATLSCRVSSSISSSNLHWYQQKPGQSPRPLIYGTSNLASGVPVRFSGSGSGTDYTLTISRLEPEDFAVYYCQQWSSYPLYTFGGGTKVEIKRTVAAPSVFIFPPSDEQLKSGTASVVCLLNNFYPREAKVQWKVDNALQSGNSQESVTEQDSKDSTYSLSSTLTLSKADYEKHKVYACEVTHQGLSSPVTKSFNRGEC
For B7, the Kd with human CD28 [6] and with human CD28 [7] was 91.6 nM each time.

B8: XENP38514 (bispecific antibody)
heavy: EVQLLESGGGLVQPGGSLRLSCAASGFTFSVYDMSWVRQAPGKRLEWVSTISSGGSFTHYPDSVKGRFTISRDNSKNTLYLQMNSLRAEDTAVYYCVRRSLDWYFDVWGAGTTVTVSSASTKGPSVFPLAPSSKSTSGGTAALGCLVKDYFPEPVTVSWNSGALTSGVHTFPAVLQSSGLYSLSSVVTVPSSSLGTQTYICNVNHKPSDTKVDKKVEPKSCDKTHTCPPCPAPPVAGPSVFLFPPKPKDTLMISRTPEVTCVVVDVKHEDPEVKFNWYVDGVEVHNAKTKPREEEYNSTYRVVSVLTVLHQDWLNGKEYKCKVSNKALPAPIEKTISKAKGQPREPQVYTLPPSREEMTKNQVSLTCDVSGFYPSDIAVEWESDGQPENNYKTTPPVLDSDGSFFLYSKLTVDKSRWEQGDVFSCSVMHEALHNHYTQKSLSLSPGK
scFv-Fc: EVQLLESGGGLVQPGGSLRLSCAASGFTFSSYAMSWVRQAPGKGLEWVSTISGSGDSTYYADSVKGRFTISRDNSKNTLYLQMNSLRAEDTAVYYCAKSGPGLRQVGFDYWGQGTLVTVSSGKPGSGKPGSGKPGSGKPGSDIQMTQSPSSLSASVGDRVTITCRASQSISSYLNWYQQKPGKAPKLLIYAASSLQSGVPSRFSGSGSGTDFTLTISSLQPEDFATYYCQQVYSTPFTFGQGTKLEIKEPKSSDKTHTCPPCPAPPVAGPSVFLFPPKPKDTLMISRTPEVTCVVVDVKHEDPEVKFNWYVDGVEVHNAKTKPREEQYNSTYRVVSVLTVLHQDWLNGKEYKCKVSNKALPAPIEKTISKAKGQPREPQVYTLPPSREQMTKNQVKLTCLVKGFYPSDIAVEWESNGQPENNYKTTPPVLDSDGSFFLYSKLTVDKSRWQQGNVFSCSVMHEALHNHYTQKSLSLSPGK
light: EIVLTQSPGTLSLSPGERATLSCRVSSSIQSTNLHWYQQKPGQSPRPLIYGTSVLATGVPVRFSGSGSGTDYTLTISRLEPEDFAVYYCQQWSSYPLYTFGGGTKVEIKRTVAAPSVFIFPPSDEQLKSGTASVVCLLNNFYPREAKVQWKVDNALQSGNSQESVTEQDSKDSTYSLSSTLTLSKADYEKHKVYACEVTHQGLSSPVTKSFNRGEC
On to B8, for which the values for the Kd with human CD28 [8] and in the test with cynomolgus PDL1 antigen [4] were 180 nM and 0.38 nM, respectively.

Values taken from patent publication US20220135684A1 (published 2022).
